Data on one substance can be found in ChEMBL document CHEMBL1140886, “Development of an optimized activatable MMP-14 targeted SPECT imaging probe” (Bioorg Med Chem, 2009).

This series concerns CC[C@H](C)[C@H](NC(=O)[C@H](CCCNC(=N)N)NC(=O)CNC(=O)[C@@H](N)CO)C(=O)NCC(=O)N[C@@H](Cc1ccccc1)C(=O)N[C@@H](CC(C)C)C(=O)N[C@@H](CCCNC(=N)N)C(=O)N[C@H](C(=O)N[C@@H](C)C(=O)O)[C@@H](C)O. Briefly: Ratio of kcat/km for human recombinant MMP14 assessed as drug cleavage.

Take “Matrix metalloproteinase-14 (Homo sapiens) (from UniProt P50281)”: the kcat/Km (usually the second-order rate constant that governs catalysis at low substrate concentration) was 777000 M⁻¹ s⁻¹.
